Measurements taken from US20210395318A1 (Molecular Partners, published 2021).

Assays:
mouse FAP = molecular target: T1, mouse FAP (mouse, UniProt P97321 26-761, limits assumed); assay: SPR (ProteOn XPR36), mFAP immobilized on GLC chip, Protein #5 as analyte
T1 construct: also called mFAP
T1 sequence (looked up): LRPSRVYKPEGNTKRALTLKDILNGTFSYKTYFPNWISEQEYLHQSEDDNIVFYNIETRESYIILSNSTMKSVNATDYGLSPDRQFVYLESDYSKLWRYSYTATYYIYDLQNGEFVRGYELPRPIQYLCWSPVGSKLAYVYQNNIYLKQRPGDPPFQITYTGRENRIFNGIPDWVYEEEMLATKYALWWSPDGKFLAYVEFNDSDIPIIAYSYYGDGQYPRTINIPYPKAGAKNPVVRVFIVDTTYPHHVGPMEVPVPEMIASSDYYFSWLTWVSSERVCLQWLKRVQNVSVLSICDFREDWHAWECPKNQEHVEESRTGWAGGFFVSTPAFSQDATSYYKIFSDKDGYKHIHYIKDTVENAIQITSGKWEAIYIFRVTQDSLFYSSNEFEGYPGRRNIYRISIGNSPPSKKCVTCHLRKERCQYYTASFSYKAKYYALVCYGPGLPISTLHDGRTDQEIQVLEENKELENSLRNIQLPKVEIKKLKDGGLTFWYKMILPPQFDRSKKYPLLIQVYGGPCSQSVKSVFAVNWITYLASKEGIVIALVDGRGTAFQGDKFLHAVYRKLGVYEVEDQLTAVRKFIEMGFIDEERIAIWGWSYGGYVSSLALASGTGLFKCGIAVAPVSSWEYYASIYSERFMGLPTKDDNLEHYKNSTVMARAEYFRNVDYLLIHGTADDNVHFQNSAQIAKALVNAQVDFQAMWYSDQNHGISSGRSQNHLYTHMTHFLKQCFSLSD
Protocol: (§1) All SPR measurements were performed using a ProteOn XPR36 instrument (BioRad) and a running buffer of PBS pH 7.4 containing 0.005% Tween 20® (PBST). The 1:1 Langmuir model was used for the fitting of SPR traces.
(§2) ProteOn setup for Protein #5 binding to FAP of different species. hFAP, cynomolgus FAP (cFAP) and mouse FAP (mFAP) were immobilized on a GLC chip (BioRad) in 10 mM Na Acetate buffer pH5.3 to a level of 1200 RU, 800 RU and 2000 RU, respectively. The interaction of FAP and Protein #5 was measured by applying Protein #5 in a serial dilution of […] and 3.13 nM with an association of 120 s and dissociation of 1800 s using a constant flow of 100 μl/min. The targets were regenerated using 10 mM glycine pH 2 and 124 mM H₃PO₄. The signals were double referenced against the PBST treated control lanes.

mouse serum albumin = molecular target: T2, mouse serum albumin (mouse, UniProt P07724 25-608); assay: SPR (ProteOn XPR36), Protein #5 captured on hFAP-coated GLC chip, serum albumin as analyte, PBST; flagged as overestimated, inaccurate fit
T2 construct: also called MSA
Protocol: as §1
(§3) ProteOn setup for Protein #5 binding to serum albumin of different species. First, human FAP (hFAP) was coated on a GLC chip (BioRad) to a level of 700 RU before 50 nM Protein #5 was immobilized as analyte for 120 s (dissociation of 0 s) at constant flow of 100 μl/min to a level of 120 RU. The binding of the serum albumin to Protein #5 was measured by injecting human serum albumin (HSA), cynomolgus serum albumin (CSA) and mouse serum albumin (MSA) in a serial dilution of 100, 33, 11 and 3.7 nM with an association of 120 s and a dissociation of 600 s at a constant flow of 100 μl/min. HSA, CSA and MSA binding was measured serially and the hFAP/Protein #5 complex was regenerated each time with 10 mM glycine pH2 for 18 s at a flow of 100 μl/min. Thus, Protein #5 had to be re-immobilized on hFAP after each regeneration step. […] The kinetic was calculated on the first 300 s of dissociation.

cynomolgus serum albumin = molecular target: T3, cynomolgus serum albumin (cynomolgus, UniProt A2V9Z4 25-608); assay: SPR (ProteOn XPR36), Protein #5 captured on hFAP-coated GLC chip, serum albumin as analyte, PBST
T3 construct: also called CSA
T3 sequence (A2V9Z4 25-608 limits assumed): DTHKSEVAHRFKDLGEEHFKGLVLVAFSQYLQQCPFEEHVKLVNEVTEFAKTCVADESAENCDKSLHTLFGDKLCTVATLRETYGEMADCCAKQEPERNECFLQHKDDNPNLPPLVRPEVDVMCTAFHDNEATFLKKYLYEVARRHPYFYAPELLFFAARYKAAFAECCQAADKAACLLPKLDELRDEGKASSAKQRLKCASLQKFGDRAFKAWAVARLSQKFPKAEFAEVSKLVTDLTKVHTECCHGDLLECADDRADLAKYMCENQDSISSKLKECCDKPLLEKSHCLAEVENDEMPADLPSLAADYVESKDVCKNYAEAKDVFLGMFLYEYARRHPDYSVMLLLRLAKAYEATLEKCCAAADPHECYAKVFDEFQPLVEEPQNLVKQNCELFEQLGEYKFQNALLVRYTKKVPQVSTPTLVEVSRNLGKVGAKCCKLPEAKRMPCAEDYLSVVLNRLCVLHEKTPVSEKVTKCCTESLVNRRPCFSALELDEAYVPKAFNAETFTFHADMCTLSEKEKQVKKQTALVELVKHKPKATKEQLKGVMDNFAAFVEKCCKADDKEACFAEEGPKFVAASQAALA
Protocol: as §1, §3

human serum albumin = molecular target: T4, human serum albumin (human, UniProt P02768 25-609); assay: as above
T4 construct: also called HSA
T4 sequence (P02768 25-609 limits assumed): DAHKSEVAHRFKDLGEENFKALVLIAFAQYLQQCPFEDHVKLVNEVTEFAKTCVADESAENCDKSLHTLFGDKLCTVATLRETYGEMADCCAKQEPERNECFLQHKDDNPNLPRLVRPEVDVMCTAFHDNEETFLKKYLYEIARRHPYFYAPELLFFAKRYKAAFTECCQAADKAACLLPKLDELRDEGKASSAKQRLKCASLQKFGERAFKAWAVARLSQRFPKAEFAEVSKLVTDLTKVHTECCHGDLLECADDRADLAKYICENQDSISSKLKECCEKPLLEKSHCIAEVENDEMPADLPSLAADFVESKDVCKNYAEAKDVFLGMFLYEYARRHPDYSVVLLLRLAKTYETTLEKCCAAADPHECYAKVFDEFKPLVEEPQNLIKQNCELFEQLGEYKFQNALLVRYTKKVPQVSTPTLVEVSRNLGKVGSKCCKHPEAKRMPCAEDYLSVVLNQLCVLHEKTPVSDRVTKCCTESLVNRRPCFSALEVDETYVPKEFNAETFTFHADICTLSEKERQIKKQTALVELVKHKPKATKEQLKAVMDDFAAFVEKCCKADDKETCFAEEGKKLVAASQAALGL
Protocol: as §1, §3

[1] = molecular target: human CD40 on primary human B cells or human monocyte-derived dendritic cells (human, UniProt P25942 21-277); assay: cell-based or functional assay
Sequence of human CD40 on primary human B cells or human monocyte-derived dendritic cells (P25942 21-277 H80K/K81H limits assumed): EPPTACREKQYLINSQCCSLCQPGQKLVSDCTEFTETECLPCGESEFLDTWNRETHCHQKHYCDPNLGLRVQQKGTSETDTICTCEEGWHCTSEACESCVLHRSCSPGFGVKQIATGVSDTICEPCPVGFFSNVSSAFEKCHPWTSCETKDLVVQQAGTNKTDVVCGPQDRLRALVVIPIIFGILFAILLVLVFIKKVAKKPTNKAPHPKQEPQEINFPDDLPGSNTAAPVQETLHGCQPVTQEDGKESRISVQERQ

cynomolgus FAP = molecular target: T5, cynomolgus FAP (cynomolgus); assay: SPR (ProteOn XPR36), FAP immobilized on GLC chip, Protein #5 as analyte, PBST, 1:1 Langmuir
T5 chain: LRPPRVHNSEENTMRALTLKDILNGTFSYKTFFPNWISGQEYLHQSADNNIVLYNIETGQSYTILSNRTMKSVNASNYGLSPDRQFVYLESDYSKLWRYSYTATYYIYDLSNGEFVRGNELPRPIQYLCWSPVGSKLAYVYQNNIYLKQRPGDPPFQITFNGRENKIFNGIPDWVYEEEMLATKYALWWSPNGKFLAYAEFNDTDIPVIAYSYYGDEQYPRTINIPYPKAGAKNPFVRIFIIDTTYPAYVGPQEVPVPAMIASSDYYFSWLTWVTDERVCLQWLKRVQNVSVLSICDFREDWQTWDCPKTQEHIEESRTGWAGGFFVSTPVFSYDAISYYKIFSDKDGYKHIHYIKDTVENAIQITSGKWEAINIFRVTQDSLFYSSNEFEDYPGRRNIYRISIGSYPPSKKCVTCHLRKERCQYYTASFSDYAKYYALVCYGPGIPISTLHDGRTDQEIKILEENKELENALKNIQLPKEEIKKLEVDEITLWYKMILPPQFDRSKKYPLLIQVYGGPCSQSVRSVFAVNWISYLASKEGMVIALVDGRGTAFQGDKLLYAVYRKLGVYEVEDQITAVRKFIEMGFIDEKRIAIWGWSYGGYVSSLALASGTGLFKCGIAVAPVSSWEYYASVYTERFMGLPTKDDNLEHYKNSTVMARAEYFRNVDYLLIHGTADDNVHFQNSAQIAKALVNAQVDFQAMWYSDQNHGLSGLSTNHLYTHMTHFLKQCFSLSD
Protocol: as §1, §2

koff (mouse serum albumin): 0.0126 s⁻¹
kon (mouse serum albumin): 315000 M⁻¹ s⁻¹
Kd (cynomolgus serum albumin): 409 nM
koff (cynomolgus serum albumin): 0.217 s⁻¹
kon (cynomolgus serum albumin): 532000 M⁻¹ s⁻¹
Kd (human serum albumin): 50 nM
koff (human serum albumin): 0.0179 s⁻¹
kon (human serum albumin): 358000 M⁻¹ s⁻¹
EC50, upregulation of CD86 and CD69 in human B cells co-cultured with FAP-expressing CHO cells [1]: 0.04 to 0.07 nM
Kd (cynomolgus FAP): 0.339 nM
koff (cynomolgus FAP): 0.000146 s⁻¹
kon (cynomolgus FAP): 432000 M⁻¹ s⁻¹
B1: DARPin Protein #5 (designed binder)
chain: GSDLGKKLLEAARAGQDDEVRELLKAGADVNAKDYFSHTPLHLAARNGHLKIVEVLLKAGADVNAKDFAGKTPLHLAAADGHLEIVEVLLKAGADVNAQDIFGKTPADIAADAGHEDIAEVLQKAAGSPTPTPTTPTPTPTTPTPTPTGSDLGKKLLEAARAGQDDEVRILLAAGADVNAKDVLGWTPLHLAAFEGHLEIVEVLLKAGADVNAKDKKGWTPLQLAARTGHLEIVEVLLKAGADVNAKDHIGATPLHLAAWQGHPEIVEVLLKAGADVNAQDKSGKTPADLAADAGHEDIAEVLQKAAGSPTPTPTTPTPTPTTPTPTPTGSDLGKKLLQAARAGQLDEVRELLKAGADVNAKDTWGFTPLHIAAESGHLEIVEVLLKAGADVNAKDVQGRTPLHIAAHSGHLEIVEVLLKAGADVNAKDFRGWTPLHLAAWSGHLEIVEILLKAGADVNAQDKSGKTPADLAARAGHQDIAEVLQKAAGSPTPTPTTPTPTPTTPTPTPTGSDLGKKLLQAARAGQLDEVRELLKAGADVNAKDTWGFTPLHIAAESGHLEIVEVLLKAGADVNAKDVQGRTPLHIAAHSGHLEIVEVLLKAGADVNAKDFRGWTPLHLAAWSGHLEIVEILLKAGADVNAQDKSGKTPADLAARAGHQDIAEVLQKAA
notes: also called SMA136; Molecule No. 1
binding result (mouse FAP): no binding (tested: 50 nM (highest concentration injected))
